Data as given in patent US20090130105A1 (Biogen, published 2009).

B1: M13-C06 antibody (antibody, V domains shown)
VH: EVQLLESGGGLVQPGGSLRLSCAASGFTFSIYRMQWVRQAPGKGLEWVSGISPSGGTTWYADSVKGRFTISRDNSKNTLYLQMNSLRAEDTAVYYCARWSGGSGYAFDIWGQGTMVTVSS
VL: DIQMTQSPLSLSASVGDRVTITCQASRDIRNYLNWYQQKPGKAPKLLIYDASSLQTGVPSRFGGSGSGTDFSFTIGSLQPEDIATYYCQQFDSLPHTFGQGTKLEIK
notes: Fully human full-length antibody (ATCC PTA-7444); also called M13.C06.G4.P.agly; M13-C06.G4P.agly
B2: M13-C06 Fab (Fab, V domains shown)
VH: B1 VH
VL: B1 VL
notes: Fab made by enzymatic digestion of the IgG

Experiments:
sIGF-1R(1-903) = target: T1, sIGF-1R(1-903) (human, UniProt P08069 31-933); assay: SEC with static light scattering
T1 construct: also called soluble IGF-1R ectodomain
T1 sequence (P08069 31-933): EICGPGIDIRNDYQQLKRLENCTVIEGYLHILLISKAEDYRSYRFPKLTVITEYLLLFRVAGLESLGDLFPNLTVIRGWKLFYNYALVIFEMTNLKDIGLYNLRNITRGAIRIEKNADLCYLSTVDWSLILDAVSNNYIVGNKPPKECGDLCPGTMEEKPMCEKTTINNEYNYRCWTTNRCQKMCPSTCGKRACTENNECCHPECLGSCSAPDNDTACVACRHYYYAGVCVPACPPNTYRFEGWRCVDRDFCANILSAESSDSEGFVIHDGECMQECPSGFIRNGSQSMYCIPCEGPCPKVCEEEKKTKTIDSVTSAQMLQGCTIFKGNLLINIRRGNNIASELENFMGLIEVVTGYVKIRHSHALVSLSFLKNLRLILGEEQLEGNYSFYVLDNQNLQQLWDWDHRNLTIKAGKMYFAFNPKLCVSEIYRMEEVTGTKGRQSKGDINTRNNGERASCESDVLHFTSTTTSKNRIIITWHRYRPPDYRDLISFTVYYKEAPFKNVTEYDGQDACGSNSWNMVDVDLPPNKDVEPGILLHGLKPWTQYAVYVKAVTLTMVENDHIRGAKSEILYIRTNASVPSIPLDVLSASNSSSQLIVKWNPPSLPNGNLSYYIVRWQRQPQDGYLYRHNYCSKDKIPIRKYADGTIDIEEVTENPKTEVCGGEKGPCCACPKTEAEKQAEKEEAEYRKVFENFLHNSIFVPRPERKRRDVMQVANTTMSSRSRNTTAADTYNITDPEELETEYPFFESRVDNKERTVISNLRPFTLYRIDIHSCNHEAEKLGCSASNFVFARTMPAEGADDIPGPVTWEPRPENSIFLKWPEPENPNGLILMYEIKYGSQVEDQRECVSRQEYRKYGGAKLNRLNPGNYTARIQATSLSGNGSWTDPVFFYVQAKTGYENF
Procedure: Analytical size exclusion chromatography (SEC) with in-line static light scattering. […] All samples contained 25 μg of each protein diluted to a final volume of 50 μL in PBS, pH 7.2, before injection onto the SEC column onto a TSKgel G3000SW XL, 5 mm, 250 Å Analytical SEC column (Tosoh Biosciences) equilibrated in 10 mM phosphate, 150 mM NaCl, 0.02% sodium Azide at pH 6.8 using an Agilent 1100 HPLC system. Light scattering data for material eluting from the SEC column were collected using a miniDAWN static light scattering detector coupled to an in-line refractive index meter (Wyatt Technologies). Light scattering data were analyzed using the ASTRA V software provided by the manufacturer.
All samples were diluted to a final volume of 50 μL in PBS, pH 7.2 before SEC/static light scattering analysis.

human IGF-1R(1-903)-Fc [1] = target: T2, human IGF-1R(1-903)-Fc (human, UniProt P08069 31-933); assay: IGF-1 blocking ELISA at 20 nM IGF-1 His on biotinylated hIGF-1R-Fc
T2 construct: also called hIGF-1R-Fc; SDWT; not shown: human IgG1 Fc, C-terminal tag
T2 sequence (P08069 31-933): as above
Procedure: The dilutions were added to the plates in duplicate at 100 μL/well and the plates were incubated at RT for 1 hour. The plates were then washed four times with 200 μL/well PBST. An HRP-conjugated anti-Histag antibody (Penta-His HRP Conjugate, QIAGEN, Cat. No. 1014992) was diluted 1:1000 in PBST and added to plates at 100 μL/well, and the plates were incubated at RT for one hour. The plates were then washed four times with 200 μL/well PBST. SureBlue Reserve TMB Microwell Peroxidase Substrate (KPL, Cat. No. 53-00-01) was added to plates at 100 μL/well followed by 1% phosphoric acid at 100 μL/well once the desired reaction was observed. The absorbance of each well was determined at 450 nm, and the results were normalized and plotted against the log of antibody concentration.
Ligand Blocking Properties.

human IGF-1R(1-903)-Fc [2] = target: T2, human IGF-1R(1-903)-Fc; assay: SPR: receptor-Fc captured on M13-C06 chip, then M13-C06 Fab; relative to wild type
Procedure: (§1) After, completion of the receptor-Fc loading step, flow rates were elevated to 5 μl/min. […] At the end of each sensorgram, the flow rate was elevated to 30 μl/min and the chip surface was regenerated by 2×10 μL injections of 0.1 M glycine, pH 2.

[3] = target: T3, hIGF-1R-Fc mutant SD002 (M156A) (human, UniProt P08069 31-933); assay: as above
T3 construct: not shown: human IgG1 Fc, C-terminal tag
T3 sequence (P08069 31-933 M186A): as the sequence (P08069 31-933) above, with M156A counted along it
Procedure: as §1

[4] = target: T4, hIGF-1R-Fc mutant SD003 (T188F) (human, UniProt P08069 31-933); assay: as above
T4 construct: not shown: human IgG1 Fc, C-terminal tag
T4 sequence (P08069 31-933 T218F): as the sequence (P08069 31-933) above, with T188F counted along it
Procedure: as §1

[5] = target: T5, hIGF-1R-Fc mutant SD004 (S210H, A211Q) (human, UniProt P08069 31-933); assay: as above
T5 construct: not shown: human IgG1 Fc, C-terminal tag
T5 sequence (P08069 31-933 S240H/A241Q): as the sequence (P08069 31-933) above, with S210H, A211Q counted along it
Procedure: as §1

[6] = target: T6, hIGF-1R-Fc mutant SD005 (A217T) (human, UniProt P08069 31-933); assay: as above
T6 construct: not shown: human IgG1 Fc, C-terminal tag
T6 sequence (P08069 31-933 A247T): as the sequence (P08069 31-933) above, with A217T counted along it
Procedure: as §1

[7] = target: T7, hIGF-1R-Fc mutant SD007 (N237G) (human, UniProt P08069 31-933); assay: as above
T7 construct: not shown: human IgG1 Fc, C-terminal tag
T7 sequence (P08069 31-933 N267G): as the sequence (P08069 31-933) above, with N237G counted along it
Procedure: as §1

[8] = target: T8, hIGF-1R-Fc mutant SD008 (S257F) (human, UniProt P08069 31-933); assay: as above
T8 construct: not shown: human IgG1 Fc, C-terminal tag
T8 sequence (P08069 31-933 S287F): as the sequence (P08069 31-933) above, with S257F counted along it
Procedure: as §1

[9] = target: T9, hIGF-1R-Fc mutant SD011 (G285S, S286T) (human, UniProt P08069 31-933); assay: as above
T9 construct: not shown: human IgG1 Fc, C-terminal tag
T9 sequence (P08069 31-933 G315S/S316T): as the sequence (P08069 31-933) above, with G285S, S286T counted along it
Procedure: as §1

[10] = target: T10, hIGF-1R-Fc mutant SD012 (E303G) (human, UniProt P08069 31-933); assay: as above
T10 construct: not shown: human IgG1 Fc, C-terminal tag
T10 sequence (P08069 31-933 E333G): as the sequence (P08069 31-933) above, with E303G counted along it
Procedure: as §1

[11] = target: T11, hIGF-1R-Fc mutant SD013 (D405K) (human, UniProt P08069 31-933); assay: as above
T11 construct: not shown: human IgG1 Fc, C-terminal tag
T11 sequence (P08069 31-933 D435K): as the sequence (P08069 31-933) above, with D405K counted along it
Procedure: as §1

[12] = target: T12, hIGF-1R-Fc mutant SD014 (K412A, A413Q) (human, UniProt P08069 31-933); assay: as above
T12 construct: not shown: human IgG1 Fc, C-terminal tag
T12 sequence (P08069 31-933 K442A/A443Q): as the sequence (P08069 31-933) above, with K412A, A413Q counted along it
Procedure: as §1

[13] = target: T13, hIGF-1R-Fc mutant SD016 (D531Q, V532N) (human, UniProt P08069 31-933); assay: as above
T13 construct: not shown: human IgG1 Fc, C-terminal tag
T13 sequence (P08069 31-933 D561Q/V562N): as the sequence (P08069 31-933) above, with D531Q, V532N counted along it
Procedure: as §1

[14] = target: T14, hIGF-1R-Fc mutant SD017 (I650S) (human, UniProt P08069 31-933); assay: as above
T14 construct: not shown: human IgG1 Fc, C-terminal tag
T14 sequence (P08069 31-933 I680S): as the sequence (P08069 31-933) above, with I650S counted along it
Procedure: as §1

[15] = target: T15, hIGF-1R-Fc mutant SD018 (E665A) (human, UniProt P08069 31-933); assay: as above
T15 construct: not shown: human IgG1 Fc, C-terminal tag
T15 sequence (P08069 31-933 E695A): as the sequence (P08069 31-933) above, with E665A counted along it
Procedure: as §1

Row | Binder | molecular weight of the complex (sIGF-1R(1-903)) [MDa] | IC50 (read off the curve) (human IGF-1R(1-903)-Fc [1]) [nM] | Biacore Relative RUmax (human IGF-1R(1-903)-Fc [2]) | Biacore Relative RUmax [3] | Biacore Relative RUmax [4] | Biacore Relative RUmax [5] | Biacore Relative RUmax [6] | Biacore Relative RUmax [7] | Biacore Relative RUmax [8] | Biacore Relative RUmax [9] | Biacore Relative RUmax [10] | Biacore Relative RUmax [11] | Biacore Relative RUmax [12] | Biacore Relative RUmax [13] | Biacore Relative RUmax [14] | Biacore Relative RUmax [15]
1 | B1 | 2 | ~1 |  |  |  |  |  |  |  |  |  |  |  |  |  | 
2 | B2 |  |  | 1 | 1.2 | 1 | 0.8 | 0.9 | 1.3 | 1.5 | 1.8 | 0.3 | 0.7 | 0.6 | 2 | 2 | 1.7
